According to patent US8034783B2, “Prodomain modulators of ADAM 10” (Biozyme, Inc., priority 2006, dated 2011):

Tests used:
TACE (human) Cat = target: T1, TACE (human) Cat (Homo sapiens, UniProt P78536); assay: Inhibition assay with TACE catalytic domain, fluorescent substrate; assay type: biochemical; settings: room temperature; read-out: inhibition constant, TACE (human) Cat
T1 construct: TACE catalytic domain, Marcos Milla, University of Pennsylvania; donated by Marcos Milla, University of Pennsylvania
Method: (§1) Inhibition assays with TACE and ADAM 10. Activity of TACE catalytic/disintegrin, TACE catalytic, or ADAM10 catalytic/disintegrin constructs was monitored at 3 minute intervals using the fluorescent substrate, Dabcyl-LAQAHomoPheRSC(Fluorescein)-NH2 (SEQ ID NO 17) with excitation 485 nm and emission 530 nm. The substrate was diluted from a 10 mM stock in DMSO to 10 μM in assay buffer containing 20 mM Tris, pH 8.0, and 0.0006% Brij-35. Reactions were run in a 96-well black-coated plate with either ADAM10 prodomain (10 nM-1.0 μM) alone or with enzyme. Concentrations of enzyme ranged from 0.5-2.0 nM for TACE and 5-15 nM for ADAM10. For assays with TACE and ADAM8 prodomain, the range of concentrations varied from 1-4.7 μM.
(§2) Calculation of inhibition constants. The amount of activity was calculated by subtracting the ADAM 10 prodomain control from the ADAM 10 prodomain with enzyme. All inhibition assays were performed at room temperature and the data fit to the following equation using Sigma Plot software:
(§3) [formula] where If is fractional inhibition, I is the inhibitor concentration and Ki is the inhibition constant.

TACE (human) Cat/Dis = target: T2, TACE (human) Cat/Dis (Homo sapiens, UniProt P78536); assay: Inhibition assay with TACE catalytic/disintegrin construct, fluorescent substrate; assay type: biochemical; settings: room temperature; read-out: inhibition constant, TACE (human) Cat/Dis
T2 construct: containing the catalytic/disintegrin domains; purchased R & D Systems (Minneapolis, Minn., USA)
Method: as §1, §2, §3

T1 sequence (P78536 223-474 limits assumed): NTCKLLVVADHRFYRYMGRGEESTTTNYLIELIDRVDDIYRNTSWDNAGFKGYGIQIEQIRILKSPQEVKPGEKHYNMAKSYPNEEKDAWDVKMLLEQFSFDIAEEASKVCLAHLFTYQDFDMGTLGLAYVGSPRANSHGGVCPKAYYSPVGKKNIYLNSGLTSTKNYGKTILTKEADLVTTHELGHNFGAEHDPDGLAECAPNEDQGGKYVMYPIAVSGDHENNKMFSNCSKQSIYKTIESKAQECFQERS
T2 sequence (P78536 215-671 limits assumed): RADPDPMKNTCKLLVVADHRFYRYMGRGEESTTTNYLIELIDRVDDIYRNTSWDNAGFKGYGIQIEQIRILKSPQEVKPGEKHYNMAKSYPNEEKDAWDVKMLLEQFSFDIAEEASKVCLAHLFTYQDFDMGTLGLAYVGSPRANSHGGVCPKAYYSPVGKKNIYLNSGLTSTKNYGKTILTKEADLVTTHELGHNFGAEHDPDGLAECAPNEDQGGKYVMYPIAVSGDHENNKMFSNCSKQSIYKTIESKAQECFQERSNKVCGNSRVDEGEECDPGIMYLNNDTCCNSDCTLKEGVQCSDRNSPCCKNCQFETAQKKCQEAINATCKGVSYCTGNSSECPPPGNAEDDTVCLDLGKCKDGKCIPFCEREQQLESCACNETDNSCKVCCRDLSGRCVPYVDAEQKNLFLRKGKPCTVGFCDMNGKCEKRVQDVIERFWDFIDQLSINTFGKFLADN

- Ki (TACE (human) Cat): > 3000 nM
- Ki (TACE (human) Cat/Dis): > 3000 nM
B1: C173S ProADAM 10 23-213 (C-terminal His tag): mouse ADAM 10 prodomain 23-213 with cysteine 173 mutated to serine, C-terminal His tag (protein, UniProt O35598 23-213, looked up, variant C173S)
chain: NPLNKYIRHYEGLSYNVDSLHQKHQRAKRAVSHEDQFLLLDFHAHGRQFNLRMKRDTSLFSDEFKVETSNKVLDYDTSHIYTGHIYGEEGSFSHGSVIDGRFEGFIKTRGGTFYIEPAERYIKDRILPFHSVIYHEDDINYPHKYGPQGGSADHSVFERMRKYQMTGVEEGARAHPEKHAASSGPELLRKK
modifications: pro-form C-terminal His tag
notes: mouse ADAM 10 prodomain 23-213 with cysteine 173 mutated to serine, C-terminal His tag
